Experiments:
[1] = Protein content in vitreous body during two weeks of eye dropping (ELISA, anti-His tag antibody); type: in vivo, SD rats (Rattus norregicus); conditions: SD rats; protein not fused with TTR
Method: (§1) The purified TTR protein (at a concentration of 4 μmol/L) prepared in Example 1 after removal of endotoxin and bacteria was subject to treating healthy SD rats (Rattus norregicus) (6 weeks old) and New Zealand big-eared rabbits (Oryctolagus cuniculus) (2 months old, about 2.5 kg) by means of eye dropping, the left eye was the sample eye dropped with the protein, and the right eye was the blank control eye dropped with saline. The protein was administered 1-3 times per day at a dosage of 0.4-0.8 nmol. Two weeks later, the eyeball was removed and separated to obtain the vitreous body sample. It was preliminarily verified by western-blot method (FIG. 7A) that TTR can enter the vitreous cavity from the ocular surface.
(§2) The purified TTR-GFP protein (at a concentration of 4 μmol/L) prepared in Example 2 after removal of endotoxin and bacteria was subject to treating healthy SD rats (Rattus norregicus) (6 weeks old) and New Zealand big-eared rabbits (Oryctolagus cuniculus) (2 months old, about 2.5 kg) by means of eye dropping, the left eye was the sample eye dropped with the protein, and the right eye was the blank control eye dropped with saline. The protein was administered 1-3 times per day at a dosage of 0.4-0.8 nmol. […] The content of TTR-GFP in the vitreous body sample was determined by ELISA with the anti-His tag antibody as the primary antibody (Table 10 and 11). […]

[2] = as above; type: in vivo, New Zealand big-eared rabbits (Oryctolagus cuniculus); conditions: New Zealand big-ear rabbits; protein not fused with TTR
Method: as §1, §2

B1: Ovalbumin: Ovalbumin protein (UniProt Accession No.: P01012) not fused with TTR (protein, UniProt P01012 2-386, looked up)
Ovalbumin: GSIGAASMEFCFDVFKELKVHHANENIFYCPIAIMSALAMVYLGAKDSTRTQINKVVRFDKLPGFGDSIEAQCGTSVNVHSSLRDILNQITKPNDVYSFSLASRLYAEERYPILPEYLQCVKELYRGGLEPINFQTAADQARELINSWVESQTNGIIRNVLQPSSVDSQTAMVLVNAIVFKGLWEKAFKDEDTQAMPFRVTEQESKPVQMMYQIGLFRVASMASEKMKILELPFASGTMSMLVLLPDEVSGLEQLESIINFEKLTEWTSSNVMEERKIKVYLPRMKMEEKYNLTSVLMAMGITDVFSSSANLSGISSAESLKISQAVHAAHAEINEAGREVVGSAEAGVDAASVSEEFRADHPFLFCIKHIATNAVLFFGRCVSP
[1]
  entering the vitreous body after eye dropping (in words): did not enter
[2]
  entering the vitreous body after eye dropping (in words): did not enter

From patent US20220168434A1, “APPLICATION OF TRANSTHYRETIN IN ENTERING EYE AND PREPARING DROP” (YIZHOU (SHANGHAI) BIOLOGICAL MEDICINE CO, LTD., priority 2019, published 2022)
